Results published in patent US20230073007A1, “SWITCHING BINDER, PREPARATION METHOD THEREFOR, AND PHARMACEUTICAL COMPOSITION, ASSAY KIT, AND ANTIGEN AND ANTIBODY ASSAY METHOD, EACH USING SAME” (OPTOLANE TECHNOLOGIES INC., priority 2019, published 2023).

Target: anti-HRP antibody
Experiment: release of labelled peptide L1 from anti-HRP antibody in solution, HRP concentration varied; released peptide separated and read by fluorescence

EC50 (read off the curve): 900 nM
Substance: HRP (from UniProt P00433 31-338) (enzyme)
